Experimental data from patent US20230348587A1 (Astellas, published 2023).

Columns and labels:
[1] = molecular target: T1, human TSPAN8-Myc-DDK expressed on CHO-K1 cell (human); experiment: binding to human TSPAN8-Myc-DDK expressed CHO-K1 cell
T1 construct: also called TSPAN8 (Myc-DDK-tagged)-Human tetraspanin 8 (ORIGENE, RC202694)
T1 chain: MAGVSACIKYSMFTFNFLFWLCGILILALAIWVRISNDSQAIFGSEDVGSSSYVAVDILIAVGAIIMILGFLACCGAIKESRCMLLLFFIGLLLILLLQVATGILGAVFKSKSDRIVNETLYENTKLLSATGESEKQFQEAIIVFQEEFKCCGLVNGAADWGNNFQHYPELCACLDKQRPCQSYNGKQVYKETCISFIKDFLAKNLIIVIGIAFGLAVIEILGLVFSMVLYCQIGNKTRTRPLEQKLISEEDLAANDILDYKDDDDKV
Protocol: For further specifying an antigen, an experiment of binding to a human TSPAN8-Myc-DDK expressed CHO-K1 cell was performed. The human TSPAN8-Myc-DDK expressed CHO-K1 cell was produced by transfecting TSPAN8 (Myc-DDK-tagged)-Human tetraspanin 8 (TSPAN8) (ORIGENE, RC202694) (SEQ ID NO: 2) into a CHO-K1 cell. As a result, it was confirmed that ten antibodies of 16B11, 16B12, 5B7, 9F6, 12C12, 13A9, 15D1, 18C10, 19E4 and 21F7 (referred to also as the “ten anti-TSPAN8 antibodies”) bound to the human TSPAN8-Myc-DDK expressed CHO-K1 cell, and recognize TSPAN8 as an antigen.

[2] = molecular target: T2, human mouse TSPAN8-GFP chimeric protein on CHO-K1 cell (human; mouse) (UniProt P19075); experiment: flow cytometry on GFP-positive CHO-K1 cells; MFI minus MFI on mock cell
T2 sequence: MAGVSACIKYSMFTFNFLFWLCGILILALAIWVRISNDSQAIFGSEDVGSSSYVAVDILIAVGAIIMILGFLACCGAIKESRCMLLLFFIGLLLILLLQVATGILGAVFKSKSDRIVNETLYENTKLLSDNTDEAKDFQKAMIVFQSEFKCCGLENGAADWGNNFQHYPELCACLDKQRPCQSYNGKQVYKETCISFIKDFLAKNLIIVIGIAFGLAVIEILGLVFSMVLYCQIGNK

[3] = molecular target: T3, human TSPAN8-GFP protein on wild-type human TSPAN8 expressing CHO-K1 cell (human, UniProt P19075 1-237); experiment: as above
T3 construct: whole, on cells; Transiently expressed; GFP-positive cells were analysed; also called Human TSPAN8 (Wild type); not shown: GFP of the pCMV6-AC-GFP vector (ORIGENE, PS100010)
T3 chain: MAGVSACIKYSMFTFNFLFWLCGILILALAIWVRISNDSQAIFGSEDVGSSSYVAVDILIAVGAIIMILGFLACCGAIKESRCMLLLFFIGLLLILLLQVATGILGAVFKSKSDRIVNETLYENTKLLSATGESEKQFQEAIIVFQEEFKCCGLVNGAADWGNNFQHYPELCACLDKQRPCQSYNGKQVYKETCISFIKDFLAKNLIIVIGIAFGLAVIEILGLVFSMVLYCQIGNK

[4] = molecular target: T4, human rat TSPAN8-GFP chimeric protein on CHO-K1 cell (human; rat, UniProt P19075 156-237); experiment: as above
T4 construct: range 156-237; whole protein on cells; also called Human rat chimeric TSPAN8; human rat TSPAN8 chimeric protein; not shown: GFP of the pCMV6-AC-GFP vector (ORIGENE, PS100010)
T4 sequence: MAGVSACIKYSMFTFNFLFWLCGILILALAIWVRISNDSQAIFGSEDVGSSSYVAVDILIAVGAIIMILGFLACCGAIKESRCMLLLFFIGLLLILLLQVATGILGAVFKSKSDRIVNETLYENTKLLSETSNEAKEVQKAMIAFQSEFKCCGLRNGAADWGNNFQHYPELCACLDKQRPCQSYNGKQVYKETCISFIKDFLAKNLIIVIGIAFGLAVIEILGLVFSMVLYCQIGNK

[5] = molecular target: T5, human TSPAN8(T131A)-GFP on CHO-K1 cell (human, UniProt P19075 1-237); experiment: as above
T5 construct: whole, on cells; Transiently expressed; GFP-positive cells were analysed; also called T131A mutant; not shown: GFP of the pCMV6-AC-GFP vector (ORIGENE, PS100010)
T5 sequence (looked up): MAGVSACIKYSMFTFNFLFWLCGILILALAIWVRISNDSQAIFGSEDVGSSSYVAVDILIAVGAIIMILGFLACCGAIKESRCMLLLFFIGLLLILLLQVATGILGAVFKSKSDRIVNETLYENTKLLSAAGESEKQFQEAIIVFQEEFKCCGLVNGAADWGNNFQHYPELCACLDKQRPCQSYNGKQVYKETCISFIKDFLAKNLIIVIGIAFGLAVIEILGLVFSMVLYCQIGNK

[6] = molecular target: T6, human TSPAN8(T131N)-GFP on CHO-K1 cell (human, UniProt P19075 1-237); experiment: as above
T6 construct: whole, on cells; Transiently expressed; GFP-positive cells were analysed; also called T131N mutant; not shown: GFP of the pCMV6-AC-GFP vector (ORIGENE, PS100010)
T6 sequence (looked up): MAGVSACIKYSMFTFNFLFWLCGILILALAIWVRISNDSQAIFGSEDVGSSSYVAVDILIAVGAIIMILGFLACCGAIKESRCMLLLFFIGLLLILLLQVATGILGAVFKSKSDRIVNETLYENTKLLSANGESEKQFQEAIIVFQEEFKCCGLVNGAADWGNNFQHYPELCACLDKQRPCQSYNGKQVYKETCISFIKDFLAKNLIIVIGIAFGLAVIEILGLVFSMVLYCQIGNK

[7] = molecular target: T2, human mouse TSPAN8-GFP chimeric protein on CHO-K1 cell (human; mouse); experiment: flow cytometry on GFP-positive CHO-K1 cells; against wild-type human TSPAN8 expressing CHO-K1 cell
[8] = molecular target: T4, human rat TSPAN8-GFP chimeric protein …; experiment: as above
Excerpt: (§1) Each vector produced was introduced into the CHO-K1 cell, to produce a cell transiently expressing a human TSPAN8-GFP protein, a human mouse TSPAN8-GFP chimeric protein or a human rat TSPAN8-GFP chimeric protein. The cell produced will be referred to as a wild-type human TSPAN8 expressing CHO-K1 cell, a human mouse TSPAN8 chimeric protein expressing CHO-K1 cell or a human rat TSPAN8 chimeric protein expressing CHO-K1 cell. Further, a cell in which a pCMV6-AC-GFP vector was introduced into a CHO-K1 cell (referred to as a mock cell) was produced. The bindings of 16B11, 16B12 and TAL69 to GFP-positive cells in these cells were measured by flow cytometry. No decrease in binding of TAL69 was observed either to the human rat or human mouse TSPAN8 chimeric protein expressing CHO-K1 cell. […] Meanwhile, the binding to the human mouse TSPAN8 chimeric protein expressing CHO-K1 cell attenuated as compared with that to the wild-type human TSPAN8 expressing CHO-K1 cell (FIGS. 5-1).
(§2) Further, in order to check whether or not the amino acid at position 131 of human TSPAN8 contributed to the binding of 16B11 or 16B12, a substitute of the amino acid was produced. Specifically, a vector containing a nucleotide sequence encoding a human TSPAN8-GFP fusion protein in which threonine (T) at position 131 of the amino acid sequence of human TSPAN8 in human TSPAN8-GFP of SEQ ID NO: 2 was replaced with alanine (A) or asparagine (N) (respectively referred to as “human TSPAN8(T131A)-GFP” or “human TSPAN8(T131N)-GFP”) was produced, and such a vector was transfected into the CHO-K1 cell, to construct a cell transiently expressing human TSPAN8(T131A)-GFP or human TSPAN8(T131N)-GFP. The cell constructed will be referred to as a human TSPAN8(T131A) expressing CHO-K1 cell or a human TSPAN8(T131N) expressing CHO-K1 cell. The bindings of 16B11, 16B12 and TAL69 to GFP-positive cells in these cells were measured by flow cytometry (FIGS. 5-3). As a result, the bindings of 16B11 and 16B12 to the human TSPAN8(T131A) expressing CHO-K1 cell and the human TSPAN8(T131N) expressing CHO-K1 cell attenuated as compared with the bindings to the wild-type human TSPAN8 expressing CHO-K1 cell.

[9] = molecular target: T5, human TSPAN8(T131A)-GFP on CHO-K1 cell; experiment: as above
Excerpt: as §1, §2

[10] = molecular target: T6, human TSPAN8(T131N)-GFP on CHO-K1 cell; experiment: as above
Excerpt: as §1, §2

[11] = molecular target: T7, human mouse TSPAN8-GFP chimeric protein on CHO-K1 cell (human; mouse, UniProt P19075 156-237); experiment: flow cytometry on GFP-positive CHO-K1 cells; MFI minus MFI on mock cell
T7 construct: range 156-237; whole protein on cells; also called Human mouse chimeric TSPAN8; human mouse TSPAN8 chimeric protein; not shown: GFP of the pCMV6-AC-GFP vector (ORIGENE, PS100010)
T7 sequence: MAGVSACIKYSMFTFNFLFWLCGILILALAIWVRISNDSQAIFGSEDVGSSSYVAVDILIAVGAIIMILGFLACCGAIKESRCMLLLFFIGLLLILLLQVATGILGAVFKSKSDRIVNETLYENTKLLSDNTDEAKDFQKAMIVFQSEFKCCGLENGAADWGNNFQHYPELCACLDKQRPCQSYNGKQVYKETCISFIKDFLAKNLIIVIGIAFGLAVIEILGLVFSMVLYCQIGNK

[12] = molecular target: T7, human mouse TSPAN8-GFP chimeric protein …; experiment: flow cytometry on GFP-positive CHO-K1 cells; against wild-type human TSPAN8 expressing CHO-K1 cell
Excerpt: as §1, §2

B1: 16B11 (antibody, V domains shown)
VH: QVQLVESGGGVVQPGRSLRLSCAASGFTFSSYGMHWVRQAPGKGLEWVAVIWYDGRNKYYADSVKGRFTISRDNSKNTLYLQMNSLRAEDTAVYYCTRDHSGSGSYYIDYWGQGTLVTVSS
VL: EIAMTQSPATLSVSPGERATLSCRASQSVSSNLAWYQQKPGQAPRLLIYGASTRATGLPARFSGSGSGTEFTLTISSLQSEDFAVYYCQQYNNFWTFGQGTKVEIKR
notes: VelocImmune hybridoma antibody: human variable regions with mouse constant regions (chimeric); Used Alexa Fluor647-labeled in some assays; also called antibody 16B11; anti-TSPAN8 antibody 16B11
binding result [1]: binds | ΔMFI [2]: 5270 | ΔMFI [3]: 173000 | ΔMFI [4]: 161000 | ΔMFI [5]: 23400 | ΔMFI [6]: 3460 | ΔMFI relative value (relative (wild-type human TSPAN8 = 100)) [7]: 3 | ΔMFI relative value [8]: 93 relative (wild-type human TSPAN8 = 100) | ΔMFI relative value [9]: 14 relative (wild-type human TSPAN8 = 100) | ΔMFI relative value (relative (wild-type human TSPAN8 = 100)) [10]: 2

B2: 16B12 (antibody, V domains shown)
VH: QVQLVESGGGVVQPGRSLRLSCAASGFIFSSYGMHWVRQAPGKGLEWVAVIWYDGSNKYYADSVKGRFTISRDNSKNTLYLQMNSLRAEDTAMYYCARDHYGSGTYYIDYWGQGTLVTVSS
VL: EIVMTQSPATLSVSPGERATLSCRASQTVSSNLAWYQQKPGQAPRLLIYGASTRATGFPARFSGSGSGTEFTLTISSLQSEDFAVYYCQQYNNWWTFGQGTKVEIKR
notes: VelocImmune hybridoma antibody: human variable regions with mouse constant regions (chimeric); also called antibody 16B12; anti-TSPAN8 antibody 16B12
ΔMFI [4]: 22400 | ΔMFI [11]: 102 | ΔMFI relative value [8]: 84 relative (wild-type human TSPAN8 = 100) | ΔMFI relative value [12]: 0 relative (wild-type human TSPAN8 = 100)

B3: Purified anti-human TSPAN8 Antibody (BioLegend, 362702 Clone TAL69) (antibody, V domains shown)
VH: EVKLLESGGGLVQPGGSMRLSCAASGFTFTDFYMNWIRQPAGKAPEWLGFIRNKASGYTTEYNPSVKGRFTISRDNTQNMLYLQMNTLRAEDTATYYCARAHSYYGYDYFDYWGQGVMVTVSS
VL: DIQMTQSPASLSASLEEIVTITCQASQDIGNWLSWYQQKPGKSPQLLIYGATSLADGVPSRFSGSRSGTQYSLKISRLQVEDIRIYYCLQAYSAPWTFGGGTKLELK
ΔMFI [3]: 133000 | ΔMFI [4]: 96200 | ΔMFI [11]: 305000 | ΔMFI [5]: 184000 | ΔMFI [6]: 143000 | ΔMFI relative value [8]: 72 relative (wild-type human TSPAN8 = 100) | ΔMFI relative value [12]: 230 relative (wild-type human TSPAN8 = 100) | ΔMFI relative value [9]: 139 relative (wild-type human TSPAN8 = 100) | ΔMFI relative value [10]: 108 relative (wild-type human TSPAN8 = 100)
